Data reported in article doi:10.1101/2021.08.09.455701 (bioRxiv, 2021).

Key:
[1] = target: RNase J (His-tagged, wild type) (Helicobacter pylori) (UniProt P56185); experiment: AUC
[2] = target: RNase J D185A (His-tagged) (Helicobacter pylori) (UniProt P56185); experiment: AUC
[3] = target: RNase J K649A (His-tagged) (Helicobacter pylori) (UniProt P56185); experiment: AUC
[4] = target: RNase J K649Q (His-tagged) (Helicobacter pylori) (UniProt P56185); experiment: AUC
crystal structure = target: the molecule itself; experiment: crystal structure

Molecule: RNase J (His-tagged, wild type) (from UniProt P56185 1-689) (enzyme)
- percent of the protein as dimer [1]: 40%
- percent of the protein as monomer [1]: 60%
- stoichiometry N [1]: 2

Molecule: RNase J D185A (His-tagged) (from UniProt P56185 1-689) (enzyme)
- stoichiometry N [2]: 2

Molecule: RNase J K649A (His-tagged) (from UniProt P56185 1-689) (enzyme)
- stoichiometry N [3]: 2

Molecule: RNase J K649Q (His-tagged) (from UniProt P56185 1-689) (enzyme)
- stoichiometry N [4]: 2

Molecule: RhpA (His-tagged) (from UniProt O25029 1-492) (enzyme)
- stoichiometry N [1]: 1 RNase J:RhpA

B1: RNase J residues 139-691 (crystallised construct) (domain or fragment, H. pylori strain 26695, UniProt P56185 137-689, looked up)
chain: SKASVKITPLGGLGEIGGNMMVIETPKSAIVIDAGMSFPKEGLFGVDILIPDFSYLHQIKDKIAGIIITHAHEDHIGATPYLFKELQFPLYGTPLSLGLIGSKFDEHGLKKYRSYFKIVEKRCPISVGEFIIEWIHITHSIIDSSALAIQTKAGTIIHTGDFKIDHTPVDNLPTDLYRLAHYGEKGVMLLLSDSTNSHKSGTTPSESTIAPAFDTLFKEAQGRVIMSTFSSNIHRVYQAIQYGIKYNRKIAVIGRSMEKNLDIARELGYIHLPYQSFIEANEVAKYPDNEILIVTTGSQGETMSALYRMATDEHRHISIKPNDLVIISAKAIPGNEASVSAVLNFLIKKEAKVAYQEFDNIHVSGHAAQEEQKLMLRLIKPKFFLPVHGEYNHVARHKQTAISCGVPEKNIYLMEDGDQVEVGPAFIKKVGTIKSGKSYVDNQSNLSIDTSIVQQREEVASAGVFVATIFVNKNKQALLESSQFSSLGLVGFKDEKPLIKEIQGGLEVLLKSSNAEILNNPKKLEDHTRNFIRKALFKKFRKYPAIICHAHSF
- binding result (crystal structure): binds
